How the values were obtained:
Assay type in all cases: biochemical
[1] = HTP-analysis of supernatants pretreated with acid (MUGal hydrolysis); details: challenge at pH 4.2; activity of the variant/activity of WT GLA (SEQ ID NO: 5); yeast supernatant
Summary of the method: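 Fluorescence of MUGal hydrolysis (Ex. 355 nm, Em. 448 nm) is read after sodium carbonate quench. The enzyme source is INVSc1 yeast culture supernatant, first exposed to pH 3.3-4.3 McIlvaine buffer at 37° C. for 1-3 h, then reacted at pH 4.8 for 30-180 minutes.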

[2] = HTP-analysis of supernatants pretreated with base (MUGal hydrolysis); details: challenge at pH 7.1; activity of the variant/activity of WT GLA (SEQ ID NO: 5); yeast supernatant
Summary of the method: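 GLA variants were secreted by transformed INVSc1 yeast grown 66-84 h at 30° C. Supernatants were exposed to neutral-to-basic buffers (pH 7.0-9.7) at 37° C for 1-18 h, then assayed with MUGal in acidic citrate/McIlvaine buffer, with fluorescence read after quenching.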

[3] = HTP-analysis of yeast culture supernatants, no challenge (MUGal hydrolysis); details: activity of the variant/activity of WT GLA (SEQ ID NO: 5), yeast supernatant
Summary of the method: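 Activity read as 4-methylumbelliferyl α-D-galactopyranoside hydrolysis: fluorescence (355/448 nm) after sodium carbonate stop, following 30-180 min at 37° C with 2 mM MUGal stock at pH 4.6–4.8. Enzyme source is unchallenged culture supernatant of INVSc1 yeast expressing GLA variants, grown 66-84 h at 30° C.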

B1: 151 (protein)
chain: LDNGLARTPTMGWLHWERFMCNLDCQEEPDSCISEKLFMEMAELMVSEGWKDAGYEYLCIDDCWMAPQRDSEGRLQADPQRFPHGIRQLANYVHSKGLKLGIYADVGNKTCAGFPGSFGYYDIDAQTFADWGVDLLKFDGCYCDSLENLADGYKHMSLALNSTGRSIVYSCEWPLYMWPFQKPNYTEIRQYCNHWRNFADIDDSWKSIKSILDWTSFNQERIVDVAGPGGWNDPDMLVIGNFGLSWNQQVTQMALWAIMAAPLFMSNDLRHISPQAKALLQDKDVIAINQDPLGKQGYQLRQGDNFEVWERPLSGLAWAVAMINRQEIGGPRSYTIAVASLGKGVACNPACFITQLLPVKRKLGFYEWTSRLRSHINPTGTVLLQLENTMQMSKDLLL
modifications: Synthetic Polypeptide sequence of Variant No. 151 of mature Human GLA
[1]
  Relative Activity of GLA Variants After Challenge at pH 4.2: + (+ = 0.5 to 1.5 relative activity over WT GLA (SEQ ID NO: 5))
[2]
  Relative Activity of GLA Variants After Challenge at pH 7.1: + (+ = 0.5 to 1.5 relative activity over WT GLA (SEQ ID NO: 5))
[3]
  Relative Activity of GLA Variants After No Challenge (NC): + (+ = 0.5 to 1.5 relative activity over WT GLA (SEQ ID NO: 5))

B2: 157 (protein)
chain: LDNGLARTPTMGWLHWERFMCNLDCQEEPDSCISEKLFMEMAELMVSEGWKDAGYEYLCIDDCWMAPQRDSEGRLQADPQRFPHGIRQLANYVHSKGLKLGIYADVGNKTCAGFPGSFGYYDIDAQTFADWGVDLLKFDGCYCDSLENLADGYKHMSLALNRTGRSIVYSCEWPLYMWPFQKPNYTEIRQYCNHWRNFADIDDSWKSIKSILDWTSFNQERIVDVAGPGGWNDPDMLVIGNFGLSWNQQVTQMALWAIMAAPLFMSNDLRHISPQAKALLQDKDVIAINQDPLGKQGYQLRQGDNFEVWERPLSGLAWAVAMINRQEIGGPRSYTIAVASLGKGVACNPACFITQLLPVKRKLGFYEWTSVLRSHINPTGTVLLQLENTMQMSKDLLL
modifications: Synthetic Polypeptide sequence of Variant No. 157 of mature Human GLA
[1]
  Relative Activity of GLA Variants After Challenge at pH 4.2: + (+ = 0.5 to 1.5 relative activity over WT GLA (SEQ ID NO: 5))
[2]
  Relative Activity of GLA Variants After Challenge at pH 7.1: ++ (++ = >1.5 to 2.5 relative activity over WT GLA (SEQ ID NO: 5))
[3]
  Relative Activity of GLA Variants After No Challenge (NC): ++ (++ = >1.5 to 2.5 relative activity over WT GLA (SEQ ID NO: 5))

B3: 152 (protein)
chain: LDNGLARTPTMGWLHWERFMCNLDCQEEPDSCISEKLFMEMAELMVSEGWKDAGYEYLCIDDCWMAPQRDSEGRLQADPQRFPHGIRQLANYVHSKGLKLGIYADVGNKTCAGFPGSFGYYDIDAQTFADWGVDLLKFDGCYCDSLENLADGYKHMSLALNRTGRSIVYSCEWPLYMWPFQKPNYTEIRQYCNHWRNFADIDDSWKSIKSILDWTSFNQEKIVDVAGPGGWNDPDMLVIGNFGLSWNQQVTQMALWAIMAAPLFMSNDLRHISPQAKALLQDKDVIAINQDPLGKQGYQLRQGDNFEVWERPLSGLAWAVAMINRQEIGGPRSYTIAVASLGKGVACNPGCFITQLLPVKRKLGFYEWTSRLRSHINPTGTVLLQLENTMQMSKDLLL
modifications: Synthetic Polypeptide sequence of Variant No. 152 of mature Human GLA
[1]
  Relative Activity of GLA Variants After Challenge at pH 4.2: ++ (++ = >1.5 to 2.5 relative activity over WT GLA (SEQ ID NO: 5))
[2]
  Relative Activity of GLA Variants After Challenge at pH 7.1: ++ (++ = >1.5 to 2.5 relative activity over WT GLA (SEQ ID NO: 5))
[3]
  Relative Activity of GLA Variants After No Challenge (NC): ++ (++ = >1.5 to 2.5 relative activity over WT GLA (SEQ ID NO: 5))

B4: 154 (protein)
chain: LDNGLARTPTMGWLHWERFMCNLDCQEEPDSCISEKLFMEMAELMVSEGWKDAGYEYLCIDDCWMAPQRDSEGRLQADPQRFPHGIRQLANYVHSKGLKLGIYADVGNKTCAGFPGSFGYYDIDAQTFADWGVDLLKFDGCYCDSLENLADGYKHMSLALNRTGRSIVYSCEWPLYMWPFQKPNYTEIRQYCNHWRNFADIDDSWKSIKSILDWTSFNQERIVDVAGPGGWNDPDMLVIGNFGLSWNQQVTQMALWAIMAAPLFMSNDLRHISPQAKALLQDKDVIAINQDPLGKQGYQLIQGDNFEVWERPLSGLAWAVAMINRQEIGGPRSYTIAVASLGKGVACNPACFITQLLPVKRTLGFYEWTSRLRSHINPTGTVLLQLENTMQMSKDLLL
modifications: Synthetic Polypeptide sequence of Variant No. 154 of mature Human GLA
[1]
  Relative Activity of GLA Variants After Challenge at pH 4.2: + (+ = 0.5 to 1.5 relative activity over WT GLA (SEQ ID NO: 5))
[2]
  Relative Activity of GLA Variants After Challenge at pH 7.1: ++ (++ = >1.5 to 2.5 relative activity over WT GLA (SEQ ID NO: 5))
[3]
  Relative Activity of GLA Variants After No Challenge (NC): ++ (++ = >1.5 to 2.5 relative activity over WT GLA (SEQ ID NO: 5))

B5: 155 (protein)
chain: LDNGLARTPTMGWLHWERFMCNLDCQEEPDSCISEKLFMEMAELMVSEGWKDAGYEYLCIDDCWMAPQRDSEGRLQADPQRFPHGIRQLANYVHSKGLKLGIYADVGNKTCAGFPGSFGYYDIDAQTFADWGVDLLKFDGCYCDSLENLADGYKHMSLALNRTGRSIVYSCEWPLYMWPFQKPNYTEIRQYCNHWRNFADIDDSWKSIKSILDWTSFNQERIVDVAGPGGWNDPDMLVIGNFGLSWNQQVTQMALWAIMAAPLFMSNDLRHISPQAKALLQDKDVIAINQDPLGKQGYQLLQGDNFEVWERPLSGLAWAVAMINRQEIGGPRSYTIAVASLGKGVACNPACFITQLLPVKRKLGFYEWTSRLRSHINPTGTVLLQLENTMQMSKDLLL
modifications: Synthetic Polypeptide sequence of Variant No. 155 of mature Human GLA
[1]
  Relative Activity of GLA Variants After Challenge at pH 4.2: + (+ = 0.5 to 1.5 relative activity over WT GLA (SEQ ID NO: 5))
[2]
  Relative Activity of GLA Variants After Challenge at pH 7.1: + (+ = 0.5 to 1.5 relative activity over WT GLA (SEQ ID NO: 5))
[3]
  Relative Activity of GLA Variants After No Challenge (NC): + (+ = 0.5 to 1.5 relative activity over WT GLA (SEQ ID NO: 5))

B6: 38 (protein)
chain: LDNGLARTPTMGWLHWERFMCNLDCQEEPDSCISEKLFMEMAELMVSEGWKDAGYEYLCIDDCWMAPQRDSEGRLQADPQRFPHGIRQLANYVHSKGLKLGIYASVGNKTCAGFPGSFGYYDIDAQTFADWGVDLLKFDGCYCDSLENLADGYKHMSLALNRTGRSIVYSCEWPLYMWPFQKPNYTEIRQYCNHWRNFADIDDSWKSIKSILDWTSFNQERIVDVAGPGGWNDPDMLVIGNFGLSWNQQVTQMALWAIMAAPLFMSNDLRHISPQAKALLQDKDVIAINQDPLGKQGYQLRQGDNFEVWERPLSGLAWAVAMINRQEIGGPRSYTIAVASLGKGVACNPACFITQLLPVKRKLGFYEWTSRLRSHINPTGTVLLQLENTMQMSKDLLL
modifications: Synthetic Polypeptide sequence of Variant No. 38 of mature Human GLA
[1]
  Relative Activity of GLA Variants After Challenge at pH 4.2: + (+ = 0.5 to 1.5 relative activity over WT GLA (SEQ ID NO: 5))
[2]
  Relative Activity of GLA Variants After Challenge at pH 7.1: − (− = <0.5 relative activity to WT GLA (SEQ ID NO: 5))
[3]
  Relative Activity of GLA Variants After No Challenge (NC): − (− = <0.5 relative activity to WT GLA (SEQ ID NO: 5))

B7: 156 (protein)
chain: LDNGLARTPTMGWLHWERFMCNLDCQEEPDSCISEKLFMEMAELMVSEGWKDAGYEYLCIDDCWMAPQRDSEGRLQADPQRFPHGIRQLANYVHSKGLKLGIYADVGNKTCAGFPGSFGYYDIDAQTFADWGVDLLKFDGCYCDSLENLADGYKHMSLALNRTGRSIVYSCEWPLYMWPFQKPNYTEIRQYCNHWRNFADIDDSWKSIKSILDWTSFNQERIVDVAGPGGWNDPDMLVIGNFGLSWNQQVTQMALWAIMAAPLFMSNDLRHISPQAKALLQDKDVIAINQDPLGKQGYQLRQGDNFEVWERPLSGLAWAVAMINRQEIGGPRSYTIAVASLGKGVACNPACFITQLLPVKRKLGFYEWTSSLRSHINPTGTVLLQLENTMQMSKDLLL
modifications: Synthetic Polypeptide sequence of Variant No. 156 of mature Human GLA
[1]
  Relative Activity of GLA Variants After Challenge at pH 4.2: + (+ = 0.5 to 1.5 relative activity over WT GLA (SEQ ID NO: 5))
[2]
  Relative Activity of GLA Variants After Challenge at pH 7.1: ++ (++ = >1.5 to 2.5 relative activity over WT GLA (SEQ ID NO: 5))
[3]
  Relative Activity of GLA Variants After No Challenge (NC): ++ (++ = >1.5 to 2.5 relative activity over WT GLA (SEQ ID NO: 5))

B8: 153 (protein)
chain: LDNGLARTPTMGWLHWERFMCNLDCQEEPDSCISEKLFMEMAELMVSEGWKDAGYEYLCIDDCWMAPQRDSEGRLQADPQRFPHGIRQLANYVHSKGLKLGIYADVGNKTCAGFPGSFGYYDIDAQTFADWGVDLLKFDGCYCDSLENLADGYKHMSLALNRTGRSIVYSCEWPLYMWPFQKPNYTEIRQYCNHWRNFADIDDSWKSIKSILDWTSFNQETIVDVAGPGGWNDPDMLVIGNFGLSWNQQVTQMALWAIMAAPLFMSNDLRHISPQAKALLQDKDVIAINQDPLGKQGYQLRQGDNFEVWERPLSGLAWAVAMINRQEIGGPRSYTIAVASLGKGVACNPACFITQLLPVKRKLGFYEWTSRLRSHINPTGTVLLQLENTMQMSKDLLL
modifications: Synthetic Polypeptide sequence of Variant No. 153 of mature Human GLA
[1]
  Relative Activity of GLA Variants After Challenge at pH 4.2: + (+ = 0.5 to 1.5 relative activity over WT GLA (SEQ ID NO: 5))
[2]
  Relative Activity of GLA Variants After Challenge at pH 7.1: ++ (++ = >1.5 to 2.5 relative activity over WT GLA (SEQ ID NO: 5))
[3]
  Relative Activity of GLA Variants After No Challenge (NC): + (+ = 0.5 to 1.5 relative activity over WT GLA (SEQ ID NO: 5))
